Laboratory results: publication PMC6546432

How the values were obtained:
[1] = biological target: dog K12del HA-tagged retinol-binding protein (^HARBP) (dog); assay: non-reducing SDS-PAGE and western blot; conditioned media of transfected HeLa cells; no beta-mercaptoethanol; anti-HA, LI-COR
[2] = biological target: dog K12del retinol-binding protein (RBP) in serum (dog (endogenous in serum)); assay: non-reducing SDS-PAGE and western blot; dog serum; non-reducing conditions; gels treated with beta-mercaptoethanol before transfer

Row | dimer fraction [1] | stoichiometry N [2] | Substance
1 | 0.89 | – | dog K12del HA-tagged retinol-binding protein (^HARBP) (natural protein)
2 | – | 2 | dog K12del retinol-binding protein (RBP) in serum (natural protein)
